Experiment [1] addresses CD123_AC. In words: ELISA; FIG. 30A. In general terms: In an ELISA, binding on a coated surface is turned into a signal by an enzyme label.
In experiment [2] the target is CD123_DA. In words: ELISA; FIG. 30A.
The target in experiment [3] is CD123_BD. In words: ELISA; FIG. 30A.
Experiment [4] deals with CD123_CA. Description: ELISA; FIG. 30A.
Experiment [5] concerns the target CD123_AD. Description: ELISA; FIG. 30A.
In experiment [6] the target is CD123_BC. Description: ELISA; FIG. 30B.
The target of experiment [7] is T1, immobilized CD123 (UniProt P26951 19-305).
T1 chain: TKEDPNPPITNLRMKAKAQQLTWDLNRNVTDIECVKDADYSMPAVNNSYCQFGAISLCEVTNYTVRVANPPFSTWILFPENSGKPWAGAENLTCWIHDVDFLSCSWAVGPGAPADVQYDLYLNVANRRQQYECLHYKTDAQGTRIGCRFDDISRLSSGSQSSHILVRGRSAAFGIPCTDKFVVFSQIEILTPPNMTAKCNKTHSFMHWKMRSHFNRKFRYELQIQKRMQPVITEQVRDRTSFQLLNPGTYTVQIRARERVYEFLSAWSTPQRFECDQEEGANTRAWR
Description: ELISA; FIG. 30A.

Experiment [8] addresses T1, immobilized CD123. In words: ELISA; FIG. 30B.

B1: CD123 (receptor)
chain: TKEDPNPPITNLRMKAKAQQLTWDLNRNVTDIECVKDADYSMPAVNNSYCQFGAISLCEVTNYTVRVANPPFSTWILFPENSGKPWAGAENLTCWIHDVDFLSCSWAVGPGAPADVQYDLYLNVANRRQQYECLHYKTDAQGTRIGCRFDDISRLSSGSQSSHILVRGRSAAFGIPCTDKFVVFSQIEILTPPNMTAKCNKTHSFMHWKMRSHFNRKFRYELQIQKRMQPVITEQVRDRTSFQLLNPGTYTVQIRARERVYEFLSAWSTPQRFECDQEEGANTRAWR
As for B1, the equilibrium dissociation constant (Kd) in experiment [1] came to 1.83 nM; in experiment [2], 2.8 nM; in experiment [3], 1.12 nM; in experiment [4], 10.2 nM; in experiment [5], 1.77 nM; in experiment [6] it was 3.25 nM.

B2: parent mouse scFv (anti-CD123, clone 32716) (scFv)
scFv: DIVLTQSPASLAVSLGQRATISCRASESVDNYGNTFMHWYQQKPGQPPKLLIYRASNLESGIPARFSGSGSRTDFTLTINPVEADDVATYYCQQSNEDPPTFGAGTKLELKGGGGSGGGGSSGGGSQIQLVQSGPELKKPGETVKISCKASGYIFTNYGMNWVKQAPGKSFKWMGWINTYTGESTYSADFKGRFAFSLETSASTAYLHINDLKNEDTATYFCARSGGYDPMDYWGQGTSVTVSS
In the case of B2, the Kd in experiment [7] stood at 2.56 nM; in experiment [8] it was 1.04 nM.

In general, Kd refers to the constant that tells how readily two partners part at equilibrium. A low value points to a tighter complex.

The values above are taken from patent US20170183415A1 (published 2017).
